Sequences and labels used below:
B1: soluble serum stimulated 2 (sST2), the truncated, soluble form of ST2 (receptor, UniProt Q01638-2 19-328, looked up)
chain: KFSKQSWGLENEALIVRCPRQGKPSYTVDWYYSQTNKSIPTQERNRVFASGQLLKFLPAAVADSGIYTCIVRSPTFNRTGYANVTIYKKQSDCNVPDYLMYSTVSGSEKNSKIYCPTIDLYNWTAPLEWFKNCQALQGSRYRAHKSFLVIDNVMTEDAGDYTCKFIHNENGANYSVTATRSFTVKDEQGFSLFPVIGAPAQNEIKEVEIGKNANLTCSACFGKGTQFLAAVLWQLNGTKITDFGEPRIQQEEGQNQSFSNGLACLDMVLRIADVKEEDLLLQYDCLALNLHGLRRHTVRLSRKNPSKECF
B4: reduced interleukin-33 (IL-33^red), recombinant human, residues 112–270 (ligand, UniProt O95760 112-270, looked up)
chain: SITGISPITEYLASLSTYNDQSITFALEDESYEIYVEDLKKDEKKDKVLLSYYESQHPSNESGDGVDGKMLMVTLSPTKDFWLHANNKEHSVELHKCEKPLPDQAFFVLHNMHSNCVSFECKTDPGVFIGVKDNHLALIKVDSSENLCTENILFKLSET
notes: interleukin-33, human, residues 112–270, reduced form (free cysteines); Other assays used a biotinylated Avi-tag histidine-tag form or an N-terminally tagged form; also called wild-type IL-33; source: recombinant

The target of test [1] is B4. As to the kind of experiment: cell-based or functional assay.
Test [2] concerns the target T1, endogenous IL-33^red derived from human lung tissue (mixture of full-length and N-terminally truncated forms) (human (endogenous in lung tissue), UniProt O95760 1-270).
T1 sequence (looked up): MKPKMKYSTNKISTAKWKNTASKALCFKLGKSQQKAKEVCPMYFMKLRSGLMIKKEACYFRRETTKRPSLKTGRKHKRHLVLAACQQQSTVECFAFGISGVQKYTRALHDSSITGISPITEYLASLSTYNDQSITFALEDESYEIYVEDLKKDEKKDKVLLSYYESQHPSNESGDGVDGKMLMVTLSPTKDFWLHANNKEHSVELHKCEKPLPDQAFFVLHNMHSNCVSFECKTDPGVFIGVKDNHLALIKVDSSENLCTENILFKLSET
Put plainly: cell-based or functional assay.

In the next test the target is T2, IL-33ox (Homo sapiens, UniProt O95760).
T2 chain: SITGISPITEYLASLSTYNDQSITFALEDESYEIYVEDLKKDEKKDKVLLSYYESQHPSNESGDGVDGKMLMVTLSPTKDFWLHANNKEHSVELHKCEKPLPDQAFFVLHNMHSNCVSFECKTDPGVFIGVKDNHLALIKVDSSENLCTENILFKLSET
Put plainly: SPR. For orientation: In SPR one partner is held on a chip, and binding of the other changes the refractive index at the surface.

A further test concerns the target T3, IL-33red (Homo sapiens, UniProt O95760).
T3 chain: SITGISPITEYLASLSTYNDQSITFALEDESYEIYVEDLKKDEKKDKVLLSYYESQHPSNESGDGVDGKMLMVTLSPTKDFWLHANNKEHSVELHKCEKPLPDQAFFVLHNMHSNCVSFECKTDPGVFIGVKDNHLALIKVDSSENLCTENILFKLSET
As to the kind of experiment: KinExA. Background: A kinetic exclusion assay measures how much of one partner remains free in solution.

Test [3] deals with B1. Put plainly: KinExA (kinetic exclusion assay); measurement of the association rate constant (ka) of IL-33 interacting with sST2 in free solution. The settings on record: both partners purified.
For test [4], the target named is B1. Put plainly: KinExA (kinetic exclusion assay); equilibrium in free solution; IL-33^red against fixed sST2 (30 pM and 2.0 pM datasets), 1:1 binding model fitted to both datasets simultaneously. The following applies: both partners purified.

As to B1, the “IC50 of inhibition of IL-8 release from HUVECs driven by recombinant human IL-33^red (residues 112–270)” value in test [1] came to 424 pM. For the same molecule, the “IC50 of inhibition of IL-8 release from HUVECs treated with human lung lysate (endogenous IL-33^red)” value in test [2] amounted to 32 pM.

B2: tozorakimab Fab (antibody, V domains shown)
VH: EVQLLESGGGLVQPGGSLRLSCAASGFTFSSYAMSWVRQAPGKGLEWVSGISAIDQSTYYADSVKGRFTISRDNSKNTLYLQMNSLRAEDTAVYYCARQKFMQLWGGGLRYPFGYWGQGTMVTVSS
VL: SYVLTQPPSVSVSPGQTASITCSGEGMGDKYAAWYQQKPGQSPVLVIYRDTKRPSGIPERFSGSNSGNTATLTISGTQAMDEADYYCGVIQDNTGVFGGGTKLTVLG
modifications: oxidized IL-33
As for B2, the Kd in the test with IL-33ox came out at 41000 pM.

B3: tozorakimab (antibody, V domains shown)
VH: EVQLLESGGGLVQPGGSLRLSCAASGFTFSSYAMSWVRQAPGKGLEWVSGISAIDQSTYYADSVKGRFTISRDNSKNTLYLQMNSLRAEDTAVYYCARQKFMQLWGGGLRYPFGYWGQGTMVTVSS
VL: SYVLTQPPSVSVSPGQTASITCSGEGMGDKYAAWYQQKPGQSPVLVIYRDTKRPSGIPERFSGSNSGNTATLTISGTQAMDEADYYCGVIQDNTGVFGGGTKLTVLG
As to B3, in the test with IL-33red, the equilibrium dissociation constant (Kd) came to 0.03 pM.

In test [3], B4 gave a kon of 1.5e+08 M⁻¹ s⁻¹. In test [4], this molecule yielded a Kd of 0.09 pM.

In general, Kd refers to the equilibrium constant for the complex coming apart. A word on the kon: it is the rate constant with which the complex forms. Lower therefore signals slow association.

The record behind these values is paper PMC10276851, “Tozorakimab (MEDI3506): an anti-IL-33 antibody that inhibits IL-33 signalling via ST2 and RAGE/EGFR to reduce inflammation and epithelial dysfunction” (Scientific Reports, 2023).
